Measured values published in patent US20200207830A1, “TREM2 MUTANTS RESISTANT TO SHEDDASE CLEAVAGE” (NOVARTIS AG, priority 2017, published 2020).
No end group written: not given here.

B1: TRUNCIII-159-174: human TREM2 mutant, deletion of the 16 amino acids 159-174 proximal to the transmembrane domain; SEQ ID NO: 44 (protein)
chain: MEPLRLLILLFVTELSGAHNTTVFQGVAGQSLQVSCPYDSMKHWGRRKAWCRQLGEKGPCQRVVSTHNLWLLSFLRRWNGSTAITDDTLGGTLTITLRNLQPHDAGLYQCQSLHGSEADTLRKVLVEVLADPLDHRDAGDLWFPGESESFEDAHVEHSILLLLACIFLIKILAASALWAAAWHGQKPGTHPPSELDCGHDPGYQLQTLPGLRDT
B2: T2del11-16: human TREM2 6 amino acid deletion mutant of the stalk region; SEQ ID NO: 45 (protein)
chain: MEPLRLLILLFVTELSGAHNTTVFQGVAGQSLQVSCPYDSMKHWGRRKAWCRQLGEKGPCQRVVSTHNLWLLSFLRRWNGSTAITDDTLGGTLTITLRNLQPHDAGLYQCQSLHGSEADTLRKVLVEVLADPLDHRDAGDLWFPGESESFEDAHVEHSEGEIPFPPTSILLLLACIFLIKILAASALWAAAWHGQKPGTHPPSELDCGHDPGYQLQTLPGLRDT

What was measured:
ADAM17 = ADAM17 (Homo sapiens, UniProt P78536); experiment: In vitro cleavage of TREM2 stalk region peptides by ADAM17 (HPLC); type: biochemical; conditions: neutral buffer, up to 48 hours, HPLC of parent peptide
From the text: FIGS. 5A-5E show ADAM17 cleaves TREM2 stalk region peptides in vitro at H157-S158. […] All peptides were obtained with an N-terminal 7-methoxycoumarin (Mca) fluorescent tag […]. Underlined amino acids indicates main sheddase cleavage site. AA112-171: SEQ ID NO: 24; Peptide 1: SEQ ID NO: 25; Peptide 2: SEQ ID NO: 26; Peptide 3: SEQ ID NO: 27; Peptide la: SEQ ID NO: 28; Peptide 2a: SEQ ID NO: 29; Peptide 4: SEQ ID NO: 30; Peptide 5: SEQ ID NO: 31; Peptide 6: SEQ ID NO: 32. […] FIG. 5C discloses SEQ ID NOS 83, 51 and 84, respectively, in order of appearance.
In order to identify the cleavage site of ADAM10/ADAM17 within the stalk region of TREM2, in vitro cleavage patterns of stalk region-derived peptides were investigated and confirmed the cleavage site by determination of the C-terminus of shed soluble TREM2 from cell culture supernatants. A series of peptides covering the stalk region were designed for in vitro investigation of ADAM10/ADAM17 cleavage (FIG. 5A). All peptides were obtained with an N-terminal 7-methoxycoumarin (Mca) fluorescent tag. Peptides 1-3, 1a and 2a were incubated with ADAM17 in neutral buffer for up to 48 hours, and reaction was followed by HPLC analysis of aliquots withdrawn at different time points.
HPLC-MS analysis of the reaction mixture of peptide3/ADAM17 identified one major product, SISRSLLEGEIPFP-NH2(SEQ ID NO: 51), together with 2 minor cleavage products (FIGS. 5B-5C). […] At these time points there was essentially no substrate left. Therefore, it can be concluded that the minor cleavage products originate from secondary ADAM17 cleavage of the main product.

HEK293-FT cells = experiment: FACS analysis of cell surface expression of TREM2 WT and mutants in HEK293-FT cells with or without PMA; type: cell-based; conditions: co-transfected with hDAP12, 48 h, 30 min 50 ng/ml PMA, ratio of 1 = complete inhibition of shedding, FIG. 4B
From the text: FIGS. 4A-4D show the amino acid stretch in the membrane proximal part of the TREM2 stalk region are important for shedding. […] Amino acid numbering according to iProt Q9NZC2. TM: transmembrane region. Gaps indicate deleted amino acids within the respective mutant. Exchanged amino acids in bold. Underlined amino acids indicates main sheddase cleavage site for generation of the C-terminus of TREM2 ectodomain. […] FIG. 4B is a bar graph showing FACS analysis of TREM2 WT and mutants transiently expressed in HEK293-FT cells. Cells were treated 48 hours after transfection with 50 ng/ml PMA or 0.05% DMSO. Cells were detached, labelled with AF1828 antiserum and analyzed by flow cytometry. Data are plotted as the ratio of untreated over PMA treatment for each mutant as mean±S.E. (n=3). Statistical differences to WT were calculated by Anova with Dunnett's multiple comparison test. *P<0.01. TREM2-double mutant was stably expressed in BWZ-lacZ-mDAP12 cells. Cells were seeded on an activating monoclonal antibody or isotype control and reporter gene activity assessed after 16 h. Data are plotted as the ratio of RGA for activating/control Ab as mean±S.E. (n=3). FIG. 4D is a bar graph showing replacement of the three amino acids at the sheddase cleavage site strongly increases TREM2 cell surface expression. FACS analysis of TREM2 WT and mutants transiently expressed in HEK293-FT cells. Cells were treated 48 h after transfection with 50 ng/ml PMA or 0.05% DMSO. Cells were detached, labelled with AF1828 antiserum and analyzed by flow cytometry. Data are plotted as the ratio of untreated over PMA treatment for each mutant as mean±S.E. (n=3). Statistical differences were calculated by Anova with Dunnett's multiple comparison test. *P<0.01.
Human TREM2 mutants were generated using the QuikChange Site-directed Mutagenesis Kit (Stratagene) and confirmed by sequence analysis. Transfections of complementary DNA (cDNA) constructs were carried out in a 1:1 ratio of hDAP12 and TREM2 in HEK-FT cells using Lipofectamine LTX reagent (Thermofischer) according to the manufacturer's recommendations. 48 h after transfection cells were treated for 30 min with 50 ng/ml PMA or 0.05% DMSO and detached with a cell detachment solution Accutase (Sigma) and stained with goat anti human TREM2 antibody AF1828 (R&D Systems) or isotype control followed by incubation with the secondary Alexa Fluor 488 conjugated antibody (Molecular Probes). Acquisition was performed using a BD FACSCanto II (BD biosciences).
Wild-type (WT) TREM2 or TREM2 mutants were transfected together with hDAP12 into HEK-FT cells. 48 h later cells were treated for 30 min with PMA to activate ADAMs at cell surface (see Sommer, Nature Communications 7, 11523, 2016). TREM2 cell surface expression was assessed by FACS, and results are presented as expression ratio of untreated over PMA treatment (FIG. 4B). The evaluation of each construct in the presence and absence of PMA treatment overcomes the possibility that some constructs might display different binding properties for the antiserum and allows direct comparison of changes in TREM2 cell surface expression after activation of sheddases. A ratio of 1 indicates complete inhibition of shedding. […] Next four shorter deletion mutants were generated encompassing this area, each 6 amino acids long (TRUNC1, T2del3-8, T2del6-11 and T2del11-16).

ADAM17, sequence (P78536 215-824): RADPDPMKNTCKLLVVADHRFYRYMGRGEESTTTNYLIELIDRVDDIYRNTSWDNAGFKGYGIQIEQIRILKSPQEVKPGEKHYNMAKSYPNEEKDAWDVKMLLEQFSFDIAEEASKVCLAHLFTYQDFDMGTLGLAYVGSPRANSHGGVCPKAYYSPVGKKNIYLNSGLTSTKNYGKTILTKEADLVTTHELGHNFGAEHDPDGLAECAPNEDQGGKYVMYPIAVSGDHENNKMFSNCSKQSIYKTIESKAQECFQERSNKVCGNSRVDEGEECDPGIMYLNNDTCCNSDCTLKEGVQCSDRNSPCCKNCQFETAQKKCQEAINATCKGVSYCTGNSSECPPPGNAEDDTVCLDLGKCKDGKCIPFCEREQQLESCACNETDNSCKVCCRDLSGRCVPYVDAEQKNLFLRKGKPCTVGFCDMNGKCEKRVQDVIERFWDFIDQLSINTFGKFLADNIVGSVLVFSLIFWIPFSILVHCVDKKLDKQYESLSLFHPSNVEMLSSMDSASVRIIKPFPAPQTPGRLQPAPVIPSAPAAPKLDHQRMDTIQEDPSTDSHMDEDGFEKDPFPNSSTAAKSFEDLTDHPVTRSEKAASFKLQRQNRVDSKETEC

| Molecule | Cleavage by ADAM17 (ADAM17) | PMA induced TREM2 shedding (TREM2 cell surface expression ratio of untreated over PMA treatment) (HEK293-FT cells) |
| --- | --- | --- |
| 1a: TREM2 stalk region derived synthetic peptide with 7-methoxycoumarin (Mca) tag; SEQ ID NO: 28 (VLVEVLADPLDHRD; also: 7-methoxycoumarin (Mca) tag, position not given here) [Peptide 1a] | only very little or no reduction of the parent peptide | – |
| Peptide 1: TREM2 stalk region derived synthetic peptide with 7-methoxycoumarin (Mca) tag; SEQ ID NO: 25 (SLHGSEADTLRKVLVEVLAD; also: 7-methoxycoumarin (Mca) tag, position not given here) | only very little or no reduction of the parent peptide | – |
| Peptide 2: TREM2 stalk region derived synthetic peptide with 7-methoxycoumarin (Mca) tag; SEQ ID NO: 26 (PLDHRDAGDLWFPGESESFE; also: 7-methoxycoumarin (Mca) tag, position not given here) | only very little or no reduction of the parent peptide | – |
| Peptide 2a: TREM2 stalk region derived synthetic peptide with 7-methoxycoumarin (Mca) tag; SEQ ID NO: 29 (ESESFEDAHVEH; also: 7-methoxycoumarin (Mca) tag, position not given here) | only very little or no reduction of the parent peptide | – |
| T2del3-8: human TREM2 6 amino acid deletion mutant of the stalk region; SEQ ID NO: 15 (LWFPGESESFEDAHVEHSISRSLLEGTSILLLLAC) | – | no or very little effect on shedding |
| T2del6-11: human TREM2 6 amino acid deletion mutant of the stalk region; SEQ ID NO: 16 (LWFPGESESFEDAHVEHSISRSLFPPTSILLLLAC) | – | no or very little effect on shedding |
| TRUNC1: human TREM2 6 amino acid deletion mutant of the stalk region; SEQ ID NO: 14 (LWFPGESESFEDAHVEHSISRSLLEGEIILLLLAC) | – | no or very little effect on shedding |
| B1 | – | maximally reduces TREM2 shedding |
| B2 | – | reduced PMA induced shedding |
